Data from US20190016826A1 (Genentech, published 2019).
Positions count from the first letter of the chain named.

Columns and labels:
[1] = biological target: T1, Full length human HtrA1 (HuHtrA1) (Q23-P480), N-terminal His6 tag (human, UniProt Q92743 23-480); test: SPR (BIAcore T100), single-cycle kinetics, biotinylated human HtrA1 captured on streptavidin, Fab in solution
T1 construct: Expressed in Trichoplusia ni insect cells
Text: To determine the binding affinity of HtrA1 antibodies by single cycle kinetics, Surface Plasmon Resonance (SRP) measurement with a BIAcore™ T100 instrument was used. Briefly, a series S sensor chip CM5 was activated with EDC and NHS reagents according to the supplier's instructions, and streptavidin (Pierce) was coupled to achieve approximately 2000 response units (RU), followed by blocking un-reacted groups with 1M ethanolamine.
For kinetics measurements, biotinylated human or murine HtrA1 was first injected at 10 ul/min flow rate to capture approximately 100 RU at 3 different flow cells (FC), except for FC1 (reference), and then 5-fold serial dilutions of anti-HtrA1 Fab in HBS-P buffer (0.01M HEPES pH 7.4, 0.15M NaCl, 0.005% surfactant P20) from low (0.48 nM) to high (300 nM) [5 points] were injected (flow rate: 30 μl/min) one after the other in the same cycle with no regeneration between injections. The sensorgram was recorded and subject to reference and buffer subtraction before evaluation by BIAcore™ T100 Evaluation Software (version 2.0). Association rates (km) and dissociation rates (koff) were calculated using a simple one-to-one Langmuir binding model. The equilibrium dissociation constant (Kd) was calculated as the ratio koff/kₒₙ.

HuHtrA1_PD(E247A) = biological target: T2, HuHtrA1_PD(E247A) (human, UniProt F1N152 168-386 (bovine entry)); test: ELISA on plate-coated HuHtrA1_PD mutants (Example 7); column head on the sheet reads YW505.94 Fab, legend paragraph 70 says IgG94
T2 construct: Alanine mutant of HuHtrA1_PD; also called HuHtrA1 mutant E247A; not shown: thrombin cleavage site
T2 chain: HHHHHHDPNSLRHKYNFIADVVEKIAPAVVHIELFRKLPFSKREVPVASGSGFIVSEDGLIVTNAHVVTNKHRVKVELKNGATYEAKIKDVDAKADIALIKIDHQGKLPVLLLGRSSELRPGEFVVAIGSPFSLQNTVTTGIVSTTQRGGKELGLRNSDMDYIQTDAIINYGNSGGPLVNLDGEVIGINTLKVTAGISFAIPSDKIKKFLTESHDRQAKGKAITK
Experimental: (§1) The mutants were expressed in E. coli and the trimers purified by size exclusion chromatography as described in Example 2. Binding was determined using an ELISA assay, which was conducted using a MAXISORP™ microtiter plate coated with HuHtrA1_PD mutants at 2 μg/ml in PBS for 1 h, followed by blocking with PBST buffer (0.5% BSA and 0.05% Tween 20 in PBS) for 1 h at room temperature. […] The plates were washed with PBT buffer (0.05% Tween 20 in PBS), and HRP-conjugated goat anti-human IgG (H+L) (Invitrogen) was added (1:5000 in PBST buffer) and incubated for 1 h. The plates were washed with PBT buffer and developed by adding tetramethylbenzidine substrate (Kirkegaard and Perry Laboratories, Gaithersburg, Md.). The absorbance at 450 nm was plotted as a function of antibody concentration in solution to determine EC₅₀ values.
(§2) In trypsin-like serine proteases these loops are known to be part of the specificity determining region that interacts with substrates.

D244A = biological target: T3, D244A; test: as above
T3 construct: also called HuHtrA1_PD(D244A)
Experimental: as §1, §2

D250A = biological target: T4, D250A; test: as above
T4 construct: also called HuHtrA1_PD(D250A)
Experimental: as §1, §2

Y325A = biological target: T5, Y325A; test: as above
T5 construct: also called HuHtrA1_PD(Y325A)
Experimental: as §1, §2

E239A = biological target: T6, E239A; test: as above
T6 construct: also called HuHtrA1_PD(E239A)
Experimental: as §1, §2

HuHtrA1_PD(T223A) = biological target: T7, HuHtrA1_PD(T223A) (human, UniProt F1N152 168-386 (bovine entry)); test: as above
T7 construct: Alanine mutant of HuHtrA1_PD; also called HuHtrA1 mutant T223A; not shown: thrombin cleavage site
T7 chain: T2 chain with T69A, A93E
Experimental: as §1, §2

K248A = biological target: T8, K248A; test: as above
T8 construct: also called HuHtrA1_PD(K248A)
Experimental: as §1, §2

K241A = biological target: T9, K241A; test: as above
T9 construct: also called HuHtrA1_PD(K241A)
Experimental: as §1, §2

T1 sequence (Q92743 other isoform, or with tags, fused parts or gaps): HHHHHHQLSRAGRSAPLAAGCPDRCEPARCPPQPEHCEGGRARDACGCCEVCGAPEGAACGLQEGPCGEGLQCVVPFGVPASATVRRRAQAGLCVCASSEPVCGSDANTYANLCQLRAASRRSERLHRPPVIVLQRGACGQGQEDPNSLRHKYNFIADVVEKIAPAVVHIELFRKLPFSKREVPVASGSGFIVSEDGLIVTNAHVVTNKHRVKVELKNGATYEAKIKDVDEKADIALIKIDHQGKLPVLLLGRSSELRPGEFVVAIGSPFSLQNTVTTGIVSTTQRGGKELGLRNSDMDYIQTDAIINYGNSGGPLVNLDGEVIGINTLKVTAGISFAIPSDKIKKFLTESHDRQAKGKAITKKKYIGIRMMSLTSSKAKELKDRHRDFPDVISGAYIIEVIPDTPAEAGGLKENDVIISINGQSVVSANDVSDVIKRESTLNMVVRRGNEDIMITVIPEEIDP

- Kd [1]: 31.1 nM
- koff [1]: 0.0109 s⁻¹
- kon [1]: 351000 M⁻¹ s⁻¹
- EC50 (HuHtrA1_PD(E247A)): 41.7 nM
- Relative to WT EC50 Fold Decrease (HuHtrA1_PD(E247A)): 7.4 fold
- EC50 (D244A): 4.7 nM
- Relative to WT EC50 Fold Decrease (D244A): 0.8 fold
- EC50 (D250A): 9.4 nM
- Relative to WT EC50 Fold Decrease (D250A): 1.7 fold
- EC50 (Y325A): 7.7 nM
- Relative to WT EC50 Fold Decrease (Y325A): 1.4 fold
- EC50 (E239A): 5.4 nM
- Relative to WT EC50 Fold Decrease (E239A): 0.9 fold
- EC50 (HuHtrA1_PD(T223A)): 62.9 nM
- Relative to WT EC50 Fold Decrease (HuHtrA1_PD(T223A)): 11.2 fold
- EC50 (K248A): 196 nM
- Relative to WT EC50 Fold Decrease (K248A): 35 fold
- EC50 (K241A): 23 nM
- Relative to WT EC50 Fold Decrease (K241A): 4.1 fold
B1: Fab94 (anti-HtrA1 antibody YW505.94, Fab format) (Fab, V domains shown)
VH: EVQLVESGGGLVQPGGSLRLSCAASGFNISGYYIHWVRQAPGKGLEWVGWIDPYGGDTNYADSVKGRFTISADTSKNTAYLQMNSLRAEDTAVYYCARGTFLTSWGHYFDYWGQGT
VL: DIQMTQSPSSLSASVGDRVTITCRASQDVSTAVAWYQQKPGKAPKLLIYSASFLYSGVPSRFSGSGSGTDFTLTISSLQPEDFATYYCQQSYTTPPTFGQGTKVEIKR
